Reference: patent US20060034860A1 (CELLVIR, published 2006)

Assays:
[1] = biological target: T1, Human HBOA (prey001626), prey fragments (Human, UniProt O95251 1-611); assay: yeast two-hybrid screen, bait IN (pB27), CEMC7 oligo dT primed cDNA prey library; table of bait-prey interactions
T1 construct: also called HBO1

[2] = biological target: Human EIF3S3 (prey024567), prey fragments (Human, UniProt O15372 1-352); assay: as above
[3] = biological target: T2, Human RNUT1 (prey024605), prey fragments (Human, UniProt O95149 1-360); assay: yeast two-hybrid screen, bait IN (pB27), CEMC7 random primed cDNA prey library; table of bait-prey interactions
T2 construct: also called Snurportin1; Snurportin
T2 sequence (O95149 whole entry, the tested form may be a part): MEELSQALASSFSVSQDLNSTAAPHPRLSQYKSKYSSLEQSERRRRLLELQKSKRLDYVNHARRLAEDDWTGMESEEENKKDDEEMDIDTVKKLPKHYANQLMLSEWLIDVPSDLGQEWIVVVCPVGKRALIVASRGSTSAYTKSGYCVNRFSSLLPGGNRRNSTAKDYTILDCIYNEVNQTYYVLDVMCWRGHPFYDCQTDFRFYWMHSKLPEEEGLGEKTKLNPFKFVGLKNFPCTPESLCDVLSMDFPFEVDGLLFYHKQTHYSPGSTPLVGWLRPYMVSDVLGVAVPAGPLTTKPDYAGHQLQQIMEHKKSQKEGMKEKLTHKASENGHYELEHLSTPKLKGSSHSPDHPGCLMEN

[4] = biological target: T3, sterol regulatory element binding protein 2 (hSREBF2, hgx33), prey fragments (Human, UniProt Q12772 1-1141); assay: yeast two-hybrid screen, bait TM_v1 (pB6), Human CEMC7 Random Primed prey library; table of bait-prey interactions
T3 construct: also called SREBP2
T3 sequence: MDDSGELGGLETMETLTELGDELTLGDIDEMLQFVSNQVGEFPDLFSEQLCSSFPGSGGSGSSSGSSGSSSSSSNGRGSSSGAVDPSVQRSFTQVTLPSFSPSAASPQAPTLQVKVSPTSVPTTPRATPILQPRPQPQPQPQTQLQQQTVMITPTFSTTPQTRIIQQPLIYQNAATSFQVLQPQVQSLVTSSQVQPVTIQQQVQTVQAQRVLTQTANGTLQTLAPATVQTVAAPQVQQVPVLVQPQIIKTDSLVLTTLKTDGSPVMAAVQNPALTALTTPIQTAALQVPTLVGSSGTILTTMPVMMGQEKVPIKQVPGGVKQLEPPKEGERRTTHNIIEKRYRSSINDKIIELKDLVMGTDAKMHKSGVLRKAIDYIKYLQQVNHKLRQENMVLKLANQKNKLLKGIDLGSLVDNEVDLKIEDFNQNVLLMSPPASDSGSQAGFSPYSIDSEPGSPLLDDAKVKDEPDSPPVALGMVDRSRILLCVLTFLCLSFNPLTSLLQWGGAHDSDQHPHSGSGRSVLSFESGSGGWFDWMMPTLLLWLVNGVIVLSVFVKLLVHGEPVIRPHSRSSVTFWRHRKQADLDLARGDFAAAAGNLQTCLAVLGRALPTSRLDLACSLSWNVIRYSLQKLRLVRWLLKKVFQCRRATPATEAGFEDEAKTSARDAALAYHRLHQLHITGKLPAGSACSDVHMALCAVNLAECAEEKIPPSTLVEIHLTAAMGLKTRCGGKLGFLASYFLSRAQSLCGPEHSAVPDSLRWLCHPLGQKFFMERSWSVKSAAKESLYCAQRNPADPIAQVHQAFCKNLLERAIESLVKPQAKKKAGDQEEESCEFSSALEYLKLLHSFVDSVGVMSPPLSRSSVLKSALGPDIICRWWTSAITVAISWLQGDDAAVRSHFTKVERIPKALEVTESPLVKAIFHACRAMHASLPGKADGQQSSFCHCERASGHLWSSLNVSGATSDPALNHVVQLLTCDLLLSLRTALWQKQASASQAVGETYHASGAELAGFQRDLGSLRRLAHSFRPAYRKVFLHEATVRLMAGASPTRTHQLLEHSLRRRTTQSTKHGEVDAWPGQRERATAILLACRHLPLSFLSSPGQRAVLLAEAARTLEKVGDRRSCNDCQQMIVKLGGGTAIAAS

[5] = biological target: T4, sterol regulatory element-binding protein 1 (hSREBF1, prey15532), prey fragments (Human, UniProt P36956 1-1147); assay: as above
T4 construct: also called SREBP1; hSREBP 1
T4 sequence: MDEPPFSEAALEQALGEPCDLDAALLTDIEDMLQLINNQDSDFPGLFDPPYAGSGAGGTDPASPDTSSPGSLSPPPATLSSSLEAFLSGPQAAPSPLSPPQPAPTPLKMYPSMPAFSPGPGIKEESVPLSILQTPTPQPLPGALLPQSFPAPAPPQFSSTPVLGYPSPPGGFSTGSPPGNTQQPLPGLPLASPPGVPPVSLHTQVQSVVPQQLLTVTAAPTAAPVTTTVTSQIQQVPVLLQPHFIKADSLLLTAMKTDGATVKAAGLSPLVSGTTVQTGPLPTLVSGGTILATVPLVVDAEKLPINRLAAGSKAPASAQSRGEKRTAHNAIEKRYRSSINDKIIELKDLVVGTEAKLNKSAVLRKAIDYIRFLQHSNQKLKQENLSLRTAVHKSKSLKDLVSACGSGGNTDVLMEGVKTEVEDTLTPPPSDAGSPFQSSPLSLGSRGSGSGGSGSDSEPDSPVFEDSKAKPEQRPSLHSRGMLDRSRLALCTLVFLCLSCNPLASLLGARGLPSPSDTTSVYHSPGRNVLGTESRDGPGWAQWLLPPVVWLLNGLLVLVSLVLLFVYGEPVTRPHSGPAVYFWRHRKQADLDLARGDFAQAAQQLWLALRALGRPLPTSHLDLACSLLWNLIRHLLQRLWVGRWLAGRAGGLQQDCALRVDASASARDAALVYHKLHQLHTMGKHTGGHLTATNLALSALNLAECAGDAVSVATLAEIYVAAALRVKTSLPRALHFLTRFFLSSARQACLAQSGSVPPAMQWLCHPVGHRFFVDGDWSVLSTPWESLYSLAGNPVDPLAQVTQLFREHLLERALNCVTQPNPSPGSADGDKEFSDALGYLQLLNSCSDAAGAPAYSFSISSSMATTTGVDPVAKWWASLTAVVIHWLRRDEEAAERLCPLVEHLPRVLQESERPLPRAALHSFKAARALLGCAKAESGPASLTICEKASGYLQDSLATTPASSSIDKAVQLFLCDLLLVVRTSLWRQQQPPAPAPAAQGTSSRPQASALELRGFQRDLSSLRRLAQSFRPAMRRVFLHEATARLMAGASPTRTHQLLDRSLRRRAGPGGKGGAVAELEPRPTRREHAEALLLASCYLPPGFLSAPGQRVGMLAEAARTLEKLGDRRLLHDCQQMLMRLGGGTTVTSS

[6] = biological target: T5, ATF6 alpha (prey34104, hATF6), prey fragments (Human, UniProt P18850 1-670); assay: as above
T5 construct: also called prey34106
T5 sequence: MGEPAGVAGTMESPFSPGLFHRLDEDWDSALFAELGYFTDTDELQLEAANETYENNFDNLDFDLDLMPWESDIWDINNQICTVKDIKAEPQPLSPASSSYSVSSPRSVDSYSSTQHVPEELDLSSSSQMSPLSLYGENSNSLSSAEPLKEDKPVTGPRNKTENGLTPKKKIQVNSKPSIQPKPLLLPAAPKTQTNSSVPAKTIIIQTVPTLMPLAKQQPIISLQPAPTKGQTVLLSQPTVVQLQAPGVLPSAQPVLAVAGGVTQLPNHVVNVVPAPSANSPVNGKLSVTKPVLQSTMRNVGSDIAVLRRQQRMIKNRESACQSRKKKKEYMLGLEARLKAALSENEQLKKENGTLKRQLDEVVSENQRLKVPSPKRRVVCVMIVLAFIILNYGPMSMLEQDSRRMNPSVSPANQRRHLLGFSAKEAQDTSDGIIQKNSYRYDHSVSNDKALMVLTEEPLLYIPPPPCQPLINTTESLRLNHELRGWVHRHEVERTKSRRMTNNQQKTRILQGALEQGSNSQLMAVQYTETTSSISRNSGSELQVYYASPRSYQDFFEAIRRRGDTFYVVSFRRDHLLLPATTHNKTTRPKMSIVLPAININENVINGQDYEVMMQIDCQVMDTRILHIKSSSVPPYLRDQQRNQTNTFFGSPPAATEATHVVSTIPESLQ

[7] = biological target: T6, PolyrC-Binding Protein PCBP1 (prey6634), prey fragments (Human, UniProt Q15365 1-356); assay: yeast two-hybrid screen, bait VPU_v1 (pB27), Human CEMC7 dT Primed prey library; table of bait-prey interactions
T6 construct: also called polyRC BP1; HNRPE1
T6 sequence (Q15365 whole entry, the tested form may be a part): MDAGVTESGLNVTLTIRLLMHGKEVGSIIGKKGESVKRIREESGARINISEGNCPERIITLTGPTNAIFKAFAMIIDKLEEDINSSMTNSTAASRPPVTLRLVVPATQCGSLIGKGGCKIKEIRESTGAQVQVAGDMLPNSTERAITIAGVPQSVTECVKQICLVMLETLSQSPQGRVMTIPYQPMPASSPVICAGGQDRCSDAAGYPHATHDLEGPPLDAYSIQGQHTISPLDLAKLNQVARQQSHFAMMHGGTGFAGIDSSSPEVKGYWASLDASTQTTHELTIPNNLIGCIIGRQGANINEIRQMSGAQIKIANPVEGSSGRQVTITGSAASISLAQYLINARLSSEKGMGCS

T1 sequence (O95251 whole entry, the tested form may be a part): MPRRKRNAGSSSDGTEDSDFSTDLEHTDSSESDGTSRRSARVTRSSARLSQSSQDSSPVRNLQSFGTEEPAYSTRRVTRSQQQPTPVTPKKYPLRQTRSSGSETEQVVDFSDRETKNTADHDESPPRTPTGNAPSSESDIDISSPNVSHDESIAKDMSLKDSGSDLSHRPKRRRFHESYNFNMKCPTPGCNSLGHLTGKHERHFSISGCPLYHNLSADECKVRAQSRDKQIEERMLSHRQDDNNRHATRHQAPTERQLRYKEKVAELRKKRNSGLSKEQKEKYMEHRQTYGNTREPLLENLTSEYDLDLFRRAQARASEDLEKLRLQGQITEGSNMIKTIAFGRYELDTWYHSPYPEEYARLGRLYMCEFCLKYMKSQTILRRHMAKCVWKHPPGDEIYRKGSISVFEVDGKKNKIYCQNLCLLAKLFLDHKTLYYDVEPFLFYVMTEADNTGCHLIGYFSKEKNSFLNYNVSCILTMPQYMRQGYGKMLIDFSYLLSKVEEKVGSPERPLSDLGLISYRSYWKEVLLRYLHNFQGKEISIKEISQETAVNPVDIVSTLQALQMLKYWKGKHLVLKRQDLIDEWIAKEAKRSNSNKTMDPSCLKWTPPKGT
Human EIF3S3 (prey024567), prey fragments, sequence (O15372 whole entry, the tested form may be a part): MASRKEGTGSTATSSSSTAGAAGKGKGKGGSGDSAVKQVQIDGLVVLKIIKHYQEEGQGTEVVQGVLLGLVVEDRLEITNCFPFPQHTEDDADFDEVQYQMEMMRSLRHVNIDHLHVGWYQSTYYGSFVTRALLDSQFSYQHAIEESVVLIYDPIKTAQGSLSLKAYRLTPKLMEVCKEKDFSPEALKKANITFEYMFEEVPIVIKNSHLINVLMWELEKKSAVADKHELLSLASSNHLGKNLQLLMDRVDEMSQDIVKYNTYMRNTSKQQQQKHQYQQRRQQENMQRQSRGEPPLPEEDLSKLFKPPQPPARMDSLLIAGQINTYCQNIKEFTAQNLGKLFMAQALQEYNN

B1: HIV-1 Integrase (IN), bait IN (enzyme)
chain: FLDGIDKAQEEHEKYHSNWRAMASDFNLPPVVAKEIVASCDKCQLKGEAMHGQVDCSPGIWQLDCTHLEGKVILVAVHVASGYIEAEVIPAETGQETAYFLLKLAGRWPVTTIHTDNGSNFTSATVKAACWWAGIKQEFGIPYNPQSQGVVESMNKELKKIIGQVRDQAEHLKTAVQMAVFIHNFKRKGGIGGYSAGERIVDIIATDIQTKELQKQITKIQNFRVYYRDSRDPLWKGPAKLLWKGEGAVVIQDNSDIKVVPRRKAKIIRDYGKQMAGDDCVAGRQDED
B1: binds [1]; binds [2]; binds [3].

B2: cytoplasmic domain of HIV-1 Env TM Gp41, bait TM_v1 (other)
chain: VVLSIVNRVRQGYSPLSFQTHLPAQRGPDRPDGIEEEGGERDRDRSGPLVDGFLAIIWVDLRSLCLFSYHRLRDLLLIVTRIVELLGRRGWGVLKYWWNLLQYWIQELKNSAVSLLNATAIAVAEGTDRVIEILQRAFRAVLHIPVRIRQGLERALL
notes: also called TM cyto; TM Gp41 cytoplasmic domain
B2: binds [4]; binds [5]; binds [6].

B3: HIV-1 Vpu, bait VPU_v1 (other)
chain: LQSLQVLAIVALVVATIIAIVVWTIVFIEYRKILRQRKIDRLINRITERAEDSGNESDGDQEELSALVERGHLAPWDVDDL
notes: It holds the N-terminal transmembrane anchor domain
B3: binds [7].
